Target: Slik coiled-coil C-terminal domain (Slik^CCD) (Drosophila)
Test: SEC; purified Slik^CCD on a Superdex 75 10/300 column in 20 mM Tris-HCl pH 7.5, 150 mM NaCl, 2 mM DTT; elution peak at 95.45 kDa

Slik coiled-coil C-terminal domain (Slik^CCD) (domain or fragment)
stoichiometry N: 2
